The text below walks through data of PMC6746776, “TA*p63 and GTAp63 achieve tighter transcriptional regulation in quality control by converting an inhibitory element into an additional transactivation domain” (Cell Death & Disease, 2019).

The target of one data set is T1, p300 Taz2 domain (Homo sapiens, UniProt Q09472).
T1 construct: The p300 Taz2 domain was expressed and purified as described before; made in house
T1 sequence (Q09472 1728-1809 limits assumed): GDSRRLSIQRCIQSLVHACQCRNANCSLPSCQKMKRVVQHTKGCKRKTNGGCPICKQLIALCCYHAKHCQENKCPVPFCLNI
Kind of data set: Fluorescence anisotropy with the Taz2 domain of p300. The settings on record: 100 nM N-terminal fluorescein-labeled peptide, increasing concentration of Taz2, 22 °C, two site specific binding fit (GraphPad Prism 5). The protocol:
Fig. 5 Transactivation potential of constitutively tetrameric TA*p63 and GTAp63 isoforms and its correlation with p300 Taz2 domain interaction. a TA assay of C-terminal TA*p63 and GTAp63 isoforms in comparison to TAp63 C-terminal isoforms on the p21 promotor. p53 wt was used as positive, the p53 R175H mutant as negative control. Hundred nanogram of each plasmid (pcDNA3, pGL3 and pRL-CMV) were transiently transfected in Saos-2 cells (12-well plate). Cells were harvested 24 h after transfection and assay was performed. b, c TA titration assay of TA*p63γ and GTAp63γ compared to TAp63γ on the p21 promotor. […] Protein levels were determined via western blotting. […] GAPDH was used as loading control. p63 isoforms were detected with the p63 antibody ab124762 (Abcam) for sensitivity reasons. e TA assay of FWL and potential new TA motif mutants to alanine in the N-terminus of the TA*/GTAp63 isoforms (TA*p63: Y18* F22*, W31* Y35*; GTAp63:.W9′ F12′ V15′, W29′ Y33′) on the p21 promotor. p53 wt was used as positive control, the p53 R175H mutant as negative control. […] Bars represent the mean value of the biological triplicate, error bars represent SD, crosses represent mean value of the technical replicates. f Fluorescence anisotropy experiment with the Taz2 domain of p300 and either N-terminal fluorescein-tagged TA*-GTA*- (1*-39*) or GTA-GTA*- (1′-37′) peptide. […]

For data set [1], the system named is TAp63α. Kind of data set: BN-PAGE oligomeric state of TAp63α upon Dox treatment. The settings on record: H1299 stably expressing; pre-incubated with inhibitor 5, 25, 50 µM for 1 h, then 10 µM Dox 6 h; BN-PAGE.
Method: (§1) As a control, we used the S582/S583A mutants, which remove the Chk2 priming site preventing tetramerization[13].
(§2) Three hundred nanogram expression vector carrying the p63α gene were transiently transfected in U2OS cells (12-well plate). The next day, cells were treated with 10 µM Dox for 6 h. Migration of the different oligomeric states is indicated by T (tetramer), D (dimer), and M (monomer). […] Western blot analysis was carried out using an anti-myc antibody (4A6, Merck). Cells were pre-incubated with increasing Chk2 (BML-277, Merck) or CK1 inhibitor (PF670462, Sigma–Aldrich) concentrations (5, 25, 50 µM) for 1 h. Afterwards, 10 µM Dox was added and cells were harvested 6 h later. Migration of the different oligomeric states is indicated by T (tetramer), D (dimer), and M (monomer). Vinculin was used as loading control. Protein levels loaded on BN-PAGE were adjusted to equal p63 amounts by prior western blot analysis. SDS-PAGE to detect phosphoshifts were not input adjusted
(§3) H1299 cells were transfected using the Qiagen Effectene kit according to the manufacturer’s manual in a 12-well plate or H1299 cells stably expressing p63 isoforms were used. Cells were harvested and lysed in NP lysis buffer (20 mM Tris, 150 mM NaCl, 2 mM MgCl2, 20 mM CHAPS, 1 mM DTT, complete protease inhibitor cocktail (Roche), PhosSTOP (Roche) pH 7.4 or pH 8.0). Benzonase (Merck) was added and samples were lysed on ice for 1 h. BN-PAGE (3–12%, Thermo Fisher Scientific) was performed and blotted as previously described[17],[35]. Protein levels loaded on BN-PAGE were adjusted to equal p63 amounts by prior western blot analysis. SDS-PAGE to detect phosphoshifts were not input adjusted.
(§4) 300 ng expression vector carrying the p63 gene were transiently transfected in H1299 cells (12-well plate). The next day, cells were treated with 10 µM Dox for 6 h. Migration of the different oligomeric states is indicated by T (tetramer), D (dimer) and M (monomer). […] Stably p63 expressing H1299 were treated with 10 µM Dox for up to 10 h. Protein levels loaded on BN-PAGE were adjusted to equal p63 amounts by prior western blot analysis. SDS-PAGE to detect phosphoshifts were not input adjusted.
A further data set has as its system GTAp63α. The data set can be described thus: BN-PAGE oligomeric state of GTAp63α upon Dox treatment. The settings on record: H1299 stably expressing; pre-incubated with inhibitor 5, 25, 50 µM for 1 h, then 10 µM Dox 6 h; BN-PAGE.
The next data set deals with TA*p63α. Kind of data set: BN-PAGE oligomeric state of TA*p63α upon Dox treatment. The settings on record: H1299 stably expressing; pre-incubated with inhibitor 5, 25, 50 µM for 1 h, then 10 µM Dox 6 h; BN-PAGE.
Data set [2] concerns the target GTAp63α (not stated (isoform of humans and great apes)). Kind of data set: native gel or EMSA; Blue-Native PAGE of lysates of transiently transfected U2OS or H1299 cells treated with 10 µM doxorubicin for 6 h; western blot with anti-myc. For orientation: Mobility shift assays separate free from complexed probe on a gel.
For data set [3] the target is unchanged. The data set can be described thus: native gel or EMSA; Blue-Native PAGE (3-12%) of lysates of transiently transfected H1299 cells, untreated, harvested 24 h after transfection; western blot with anti-myc.
The target is the same in data set [4]. Kind of data set: native gel or EMSA; Blue-Native PAGE of lysates of transiently transfected U2OS or H1299 cells treated with 10 µM doxorubicin for 6 h; western blot with anti-myc. This is another data set of the same source.
The target of data set [5] is GTAp63α FWL (not stated (isoform of humans and great apes)). The data set can be described thus: SEC; in vitro translated protein in rabbit reticulocyte lysate on Superose 6 3.2/300, 50 mM sodium phosphate pH 7.8, 100 mM NaCl, 4 °C; fractions analysed by western blot. Background: SEC sorts molecules by how far they enter the pores of the column.
Data set [6] has as its target TAp63α. The data set can be described thus: native gel or EMSA; Blue-Native PAGE of lysates of transiently transfected U2OS or H1299 cells treated with 10 µM doxorubicin for 6 h; western blot with anti-myc.
The target of data set [7] is TAp63α. The data set can be described thus: native gel or EMSA; Blue-Native PAGE (3-12%) of lysates of transiently transfected H1299 cells, untreated, harvested 24 h after transfection; western blot with anti-myc.
Data set [8] concerns the molecule itself. Kind of data set: native gel or EMSA; Blue-Native PAGE of lysates of transiently transfected U2OS or H1299 cells treated with 10 µM doxorubicin for 6 h; western blot with anti-myc.
Data set [9] deals with the molecule itself. The data set can be described thus: native gel or EMSA; Blue-Native PAGE (3-12%) of lysates of transiently transfected H1299 cells, untreated, harvested 24 h after transfection; western blot with anti-myc.

“And” between values parts separate entries of the source, which are not always exact repeats. Identical values can stand only once. Residues, ends and D or L forms follow the SMILES beside them.

Method for TA*p63α: as §1, §2, §3, §4

As usually defined, the Kd is a measure of binding affinity in units of concentration. Higher therefore signals lower affinity. The molecule `CC[C@H](C)[C@H](NC(=O)[C@H](Cc1ccc(O)cc1)NC(=O)[C@@H]1CCCN1C(=O)[C@H](CC(=O)O)NC(=O)[C@@H]1CCCN1C(=O)[C@H](CS)NC(=O)[C@H](Cc1ccc(O)cc1)NC(=O)[C@H](CCC(N)=O)NC(=O)[C@H](CC(C)C)NC(=O)[C@@H](NC(=O)[C@H](C)NC(=O)[C@H](CS)NC(=O)[C@H](CCCNC(=N)N)NC(=O)[C@H](CO)NC(=O)[C@@H](NC(=O)[C@H](CCC(=O)O)NC(=O)[C@H](Cc1ccccc1)NC(=O)[C@H](CC(N)=O)NC(=O)[C@@H](N)CCSC)[C@@H](C)O)[C@@H](C)O)C(=O)N[C@@H](CCC(N)=O)C(=O)N[C@@H](CCCNC(=N)N)C(=O)N[C@@H](Cc1ccccc1)C(=O)N[C@H](C(=O)N[C@@H](CCC(=O)O)C(=O)N[C@H](C(=O)N1CCC[C@H]1C(=O)N[C@@H](C)C(=O)N[C@@H](Cc1c[nH]cn1)C(=O)N[C@@H](Cc1ccccc1)C(=O)N[C@@H](CO)C(=O)N[C@@H](Cc1c[nH]c2ccccc12)C(=O)N[C@@H](CCCCN)C(=O)N[C@@H](CCC(=O)O)C(=O)N[C@@H](CO)C(=O)N[C@@H](Cc1ccc(O)cc1)C(=O)N[C@@H](Cc1ccc(O)cc1)C(=O)N[C@@H](CCCNC(=N)N)C(=O)N[C@@H](CO)C(=O)N[C@H](C(=O)O)[C@@H](C)O)[C@@H](C)O)C(C)C` [TA*-GTA*] (H-MNFETSRCATLQYCPDPYIQRFVETPAHFSWKESYYRST-OH) returned a Kd at p300 Taz2 domain of 13.2 ± 0.93 µM.

In the case of `NC(=O)c1ccc2nc(-c3ccc(Oc4ccc(Cl)cc4)cc3)[nH]c2c1` [BML-277], in the data set on TAp63α [1], the “prevention of Dox-induced tetramerization, TAp63α” value is “Tetramerization can also be prevented”. Also, the “prevention of Dox-induced tetramerization, GTAp63α” value with GTAp63α is given as “Tetramerization can also be prevented”. Besides, in the data set with TA*p63α, the “prevention of Dox-induced tetramerization, TA*p63α” value is “Tetramerization can also be prevented”.

A word on the stoichiometry N: it is a count of units in the complex or per binding partner. In the case of GTAp63α (natural protein), the stoichiometry N in data set [2] was found to be 4; in data set [3], 2; in data set [4] it was 2.

Turning to `CSCC[C@H](N)C(=O)N[C@@H](CCCCN)C(=O)N[C@@H](CS)C(=O)N[C@@H](Cc1c[nH]c2ccccc12)C(=O)N[C@@H](CCC(=O)O)C(=O)N[C@@H](CCC(N)=O)C(=O)N[C@@H](CCCNC(=N)N)C(=O)N[C@@H](CC(=O)O)C(=O)N[C@@H](Cc1c[nH]c2ccccc12)C(=O)N[C@H](C(=O)N[C@@H](C)C(=O)N[C@@H](Cc1ccccc1)C(=O)N[C@H](C(=O)N[C@@H](CCCCN)C(=O)N[C@H](C(=O)NCC(=O)N[C@@H](CCCCN)C(=O)N1CCC[C@H]1C(=O)N[C@@H](CS)C(=O)N[C@@H](Cc1ccccc1)C(=O)N[C@H](C(=O)N[C@@H](CCC(=O)O)C(=O)N[C@H](C(=O)N1CCC[C@H]1C(=O)N[C@@H](C)C(=O)N[C@@H](Cc1c[nH]cn1)C(=O)N[C@@H](Cc1ccccc1)C(=O)N[C@@H](CO)C(=O)N[C@@H](Cc1c[nH]c2ccccc12)C(=O)N[C@@H](CCCCN)C(=O)N[C@@H](CCC(=O)O)C(=O)N[C@@H](CO)C(=O)N[C@@H](Cc1ccc(O)cc1)C(=O)N[C@@H](Cc1ccc(O)cc1)C(=O)N[C@@H](CCCNC(=N)N)C(=O)N[C@@H](CO)C(=O)N[C@H](C(=O)O)[C@@H](C)O)[C@@H](C)O)C(C)C)C(C)C)[C@@H](C)O)[C@@H](C)O` [GTA-GTA*] (H-MKCWEQRDWTAFTKVGKPCFVETPAHFSWKESYYRST-OH), at p300 Taz2 domain, binding was characterised by a dissociation constant (Kd) of 4.79 ± 0.24 µM.

For the molecule GTAp63α FWL (natural protein), the stoichiometry N in data set [5] was determined as 2.

In the case of `Nc1nccc(-c2c(-c3ccc(F)cc3)ncn2C2CCCCC2)n1` [PF670462], in the data set with TAp63α [1], the “prevention of Dox-induced tetramerization, TAp63α” value was “Tetramerization can also be prevented”. Besides, the “prevention of Dox-induced tetramerization, GTAp63α” value in the data set with GTAp63α is listed as “Tetramerization can also be prevented”. The “prevention of Dox-induced tetramerization, TA*p63α” value with TA*p63α is on record as “Tetramerization can also be prevented”.

For the molecule TAp63α (natural protein), the stoichiometry N turned out to be 4 in the data set with TAp63α [6] and 2 with TAp63α [7].

B1: TA*p63α (natural protein, UniProt Q9H3D4-1 1-680, looked up)
chain: MNFETSRCATLQYCPDPYIQRFVETPAHFSWKESYYRSTMSQSTQTNEFLSPEVFQHIWDFLEQPICSVQPIDLNFVDEPSEDGATNKIEISMDCIRMQDSDLSDPMWPQYTNLGLLNSMDQQIQNGSSSTSPYNTDHAQNSVTAPSPYAQPSSTFDALSPSPAIPSNTDYPGPHSFDVSFQQSSTAKSATWTYSTELKKLYCQIAKTCPIQIKVMTPPPQGAVIRAMPVYKKAEHVTEVVKRCPNHELSREFNEGQIAPPSHLIRVEGNSHAQYVEDPITGRQSVLVPYEPPQVGTEFTTVLYNFMCNSSCVGGMNRRPILIIVTLETRDGQVLGRRCFEARICACPGRDRKADEDSIRKQQVSDSTKNGDGTKRPFRQNTHGIQMTSIKKRRSPDDELLYLPVRGRETYEMLLKIKESLELMQYLPQHTIETYRQQQQQQHQHLLQKQTSIQSPSSYGNSSPPLNKMNSMNKLPSVSQLINPQQRNALTPTTIPDGMGANIPMMGTHMPMAGDMNGLSPTQALPPPLSMPSTSHCTPPPPYPTDCSIVSFLARLGCSSCLDYFTTQGLTTIYQIEHYSMDDLASLKIPEQFRHAIWKGILDHRQLHEFSSPSHLLRTPSSASTVSVGSSETRGERVIDAVRFTLRQTISFPPRDEWNDFNFDMDARRNKQQRIKEEGE
notes: TA*p63α: another translation start site adds 39 aa N-terminally to TAp63α; phosphorylated after doxorubicin (phosphoshift on SDS-PAGE); also called myc-tagged TA*p63α wt; source: U2OS, transiently transfected, in lysate; not shown: myc, N-terminal, kept
Take B1: the “stoichiometry N” value in data set [8] was 4 and 2.

B2: TA*p63α (natural protein, UniProt Q9H3D4-1 1-680, looked up)
chain: MNFETSRCATLQYCPDPYIQRFVETPAHFSWKESYYRSTMSQSTQTNEFLSPEVFQHIWDFLEQPICSVQPIDLNFVDEPSEDGATNKIEISMDCIRMQDSDLSDPMWPQYTNLGLLNSMDQQIQNGSSSTSPYNTDHAQNSVTAPSPYAQPSSTFDALSPSPAIPSNTDYPGPHSFDVSFQQSSTAKSATWTYSTELKKLYCQIAKTCPIQIKVMTPPPQGAVIRAMPVYKKAEHVTEVVKRCPNHELSREFNEGQIAPPSHLIRVEGNSHAQYVEDPITGRQSVLVPYEPPQVGTEFTTVLYNFMCNSSCVGGMNRRPILIIVTLETRDGQVLGRRCFEARICACPGRDRKADEDSIRKQQVSDSTKNGDGTKRPFRQNTHGIQMTSIKKRRSPDDELLYLPVRGRETYEMLLKIKESLELMQYLPQHTIETYRQQQQQQHQHLLQKQTSIQSPSSYGNSSPPLNKMNSMNKLPSVSQLINPQQRNALTPTTIPDGMGANIPMMGTHMPMAGDMNGLSPTQALPPPLSMPSTSHCTPPPPYPTDCSIVSFLARLGCSSCLDYFTTQGLTTIYQIEHYSMDDLASLKIPEQFRHAIWKGILDHRQLHEFSSPSHLLRTPSSASTVSVGSSETRGERVIDAVRFTLRQTISFPPRDEWNDFNFDMDARRNKQQRIKEEGE
notes: TA*p63α: another translation start site adds 39 aa N-terminally to TAp63α; also called myc-tagged TA*p63α; source: H1299, transiently transfected (pcDNA3), in lysate; not shown: myc, N-terminal, kept
Take B2: the “stoichiometry N” value in [8] was 4; in [9], 2.
